Laboratory results from patent US20250084143A1 (INSERM INSTITUT NATIONAL DE LA SANT ET DE LA RECHERCHE M …, published 2025).

Target: T1, biotin-tagged HLA-A*03:01 monomers (immunAware) (human, biotin tag)
T1 construct: Bought recombinant monomer folded with the test peptide; also called HLA-A3; A3
Test: flow cytometry on streptavidin beads: folding of biotinylated HLA-A*03:01 monomer around the peptide, detected with anti-b2m; 1.2 nM complex

binding result: binds
Binder: RLKPSLVGK (From the SCG5-009 mRNA splice variant) [SCG5-009 193-201 peptide]
